According to paper PMC3923297, “Structural basis for microtubule recognition by the human kinetochore Ska complex” (Nature Communications, 2014):
Several values for one entry are separate records, joined by “and”; a condition that tells them apart may be missing. Equal values may be shown once.

Columns and labels:
[1] = biological target: microtubules polymerised from tubulin (α1B and β2B tubulin), P81947;Q6B856; assay: MT cosedimentation assay; conditions: 3 μM Ska and 6 μM vinblastine spirals; parent: est. 0.60; read off a plot
[2] = biological target: T1, microtubules polymerised from tubulin (α1B and β2B tubulin) (UniProt P81947 1-451; Q6B856 1-445); assay: co-sedimentation; MT-pelleting assay: taxol-stabilized MTs or subtilisin-treated MTs (0-12 μM tubulin dimer) with 1 or 3 μM protein, 10 min at room temperature, BRB80 (80 mM PIPES pH 6.9, 1 mM EGTA, 1 mM MgCl2) with 100 mM NaCl, 4 mM DTT, 20 μM taxol; spun through a glycerol cushion, 25 °C; SDS-PAGE, Coomassie, ImageJ. Kd: 1 μM Ska and 0-12 μM MTs; single points: 3 μM Ska (or 1 μM) and 6 μM MTs; conditions: both partners purified
T1 construct: α-tubulin, printed as α1B tubulin; β-tubulin, printed as β2B tubulin; Polymer of α/β-tubulin dimers; The same tubulin stood as taxol-stabilized (straight) MTs and as vinblastine spirals (curved); the assay tells them apart; brain tubulin is a mix of isotypes; also called MTs; taxol-stabilized MTs; source: bought: Cytoskeleton Inc. (tubulin), polymerised; taxol-stabilized MTs or vinblastine spirals
T1 sequence (P81947 whole entry, chain 1 of 2): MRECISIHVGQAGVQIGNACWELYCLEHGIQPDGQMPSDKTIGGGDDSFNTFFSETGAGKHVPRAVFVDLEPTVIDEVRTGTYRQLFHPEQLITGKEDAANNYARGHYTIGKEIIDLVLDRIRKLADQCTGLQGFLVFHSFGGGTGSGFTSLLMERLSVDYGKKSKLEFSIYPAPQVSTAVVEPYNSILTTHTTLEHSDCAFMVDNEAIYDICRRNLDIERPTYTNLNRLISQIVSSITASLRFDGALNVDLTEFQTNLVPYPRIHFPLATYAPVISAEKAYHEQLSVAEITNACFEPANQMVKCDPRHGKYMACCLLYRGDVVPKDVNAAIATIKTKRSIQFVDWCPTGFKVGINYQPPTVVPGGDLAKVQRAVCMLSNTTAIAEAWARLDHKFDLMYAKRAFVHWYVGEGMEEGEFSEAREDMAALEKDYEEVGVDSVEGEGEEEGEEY
T1 sequence (Q6B856 whole entry, chain 2 of 2): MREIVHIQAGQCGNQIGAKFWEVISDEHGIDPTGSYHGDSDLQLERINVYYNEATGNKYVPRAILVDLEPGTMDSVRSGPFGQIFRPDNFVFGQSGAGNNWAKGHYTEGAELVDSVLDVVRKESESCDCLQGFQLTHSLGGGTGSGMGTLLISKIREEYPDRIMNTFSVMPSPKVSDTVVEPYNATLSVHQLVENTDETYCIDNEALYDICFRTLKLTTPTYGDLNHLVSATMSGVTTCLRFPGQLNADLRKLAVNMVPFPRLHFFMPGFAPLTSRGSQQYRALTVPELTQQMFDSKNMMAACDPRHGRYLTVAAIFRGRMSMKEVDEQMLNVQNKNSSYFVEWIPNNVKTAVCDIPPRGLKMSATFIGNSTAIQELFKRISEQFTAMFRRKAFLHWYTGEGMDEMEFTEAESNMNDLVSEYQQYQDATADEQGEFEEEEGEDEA

B1: human Ska complex (Ska1, Ska2, Ska3), wild type, full length (complex)
chain 1: MASSDLEQLCSHVNEKIGNIKKTLSLRNCGQEPTLKTVLNKIGDEIIVINELLNKLELEIQYQEQTNNSLKELCESLEEDYKDIEHLKENVPSHLPQVTVTQSCVKGSDLDPEEPIKVEEPEPVKKPPKEQRSIKEMPFITCDEFNGVPSYMKSRLTYNQINDVIKEINKAVISKYKILHQPKKSMNSVTRNLYHRFIDEETKDTKGRYFIVEADIKEFTTLKADKKFHVLLNILRHCRRLSEVRGGGLTRYVIT
chain 2: MEAEVDKLELMFQKAESDLDYIQYRLEYEIKTNHPDSASEKNPVTLLKELSVIKSRYQTLYARFKPVAVEQKESKSRICATVKKTMNMIQKLQKQTDLELSPLTKEEKTAAEQFKFHMPDL
chain 3: MDPIRSFCGKLRSLASTLDCETARLQRALDGEESDFEDYPMRILYDLHSEVQTLKDDINILLDKARLENQEGIDFIKATKVLMEKNSMDIMKIREYFQKYGYSPRVKKNSVHEQEAINSDPELSNCENFQKTDVKDDLSDPPVASSCISEKSPRSPQLSDFGLERYIVSQVLPNPPQAVNNYKEEPVIVTPPTKQSLVKVLKTPKCALKMDDFECVTPKLEHFGISEYTMCLNEDYTMGLKNARNNKSEEAIDTESRLNDNVFATPSPIIQQLEKSDAEYTNSPLVPTFCTPGLKIPSTKNSIALVSTNYPLSKTNSSSNDLEVEDRTSLVLNSDTCFENLTDPSSPTISSYENLLRTPTPPEVTKIPEDILQLLSKYNSNLATPIAIKAVPPSKRFLKHGQNIRDVSNKEN
notes: Ska1, human; Ska2, human; Ska3, human, V58I as cloned; Ska3 V58I is printed without explanation; TEV-cleavable tags removed in solution; also called WT Ska complex; FL Ska complex; source: E. coli BL21 Gold, co-expressed, purified (glutathione sepharose, size-exclusion chromatography); copies: 2 + 2 + 2
response (bound fraction) [1]: 0.63 and 0.21 and 0.31 | Kd [2]: 2.9 ± 0.6 µM
